This assay has as its target CFP. Put plainly: FRET or BRET; acceptor photobleaching FRET in live C. crescentus cells on 1 % agarose pads; YFP (acceptor) bleached for 20 s at 532 nm, increase of CFP (donor) emission recorded; cells grown in M2G, 0.3 % xylose for 1 h; apparent FRET efficiency, above 0.5 % taken as an interaction, above 1 % as a strong one.

Among the data in article PMC3836487 are apparent FRET efficiency values, retold here.

For YFP, the apparent FRET efficiency was less than 0.5%.
